US7115722
Several values for one entry are separate records, joined by “and”; a condition that tells them apart may be missing. Identical values can stand only once. Blank lines part the entries; values can stand above or below the molecule they belong to.

What was measured:
C-antigen (human) [1] = assay: flow cytometry, SK-BR-3 cells, 5 mg/L
C-antigen (human) [2] = assay: flow cytometry, SK-BR-3 cells, 3.3 mg/L IgG1
C-antigen (human) [3] = assay: flow cytometry, SK-BR-3 cells, 3.9 mg/L IgG1
C-antigen (human) [4] = assay: flow cytometry, SK-BR-3 cells, 2 mg/L IgG1
C-antigen (human) [5] = assay: flow cytometry, SK-BR-3 cells, 4.0 mg/L IgG1
C-antigen (human) [6] = assay: flow cytometry, live MB-468 cells, 200 µg/mL
C-antigen (human) [7] = assay: cell-fixed ELISA, NCI-H82 cells, 2.5 µg/mL
C-antigen (human) [8] = assay: cell-fixed ELISA, SK-BR-3 cells, 2.5 µg/mL
C-antigen (human) [9] = assay: cell-fixed ELISA, HEP-2 cells, 2.5 µg/mL
C-antigen (human) [10] = assay: cell-fixed ELISA, A-427 cells, 2.5 µg/mL
C-antigen (human) [11] = assay: cell-fixed ELISA, PC-3 cells, 2.5 µg/mL
C-antigen (human) [12] = assay: cell-fixed ELISA, U-118MG cells, 2.5 µg/mL
C-antigen (human) [13] = assay: cell-fixed ELISA, K-562 cells, 2.5 µg/mL
C-antigen (human) [14] = assay: flow cytometry, live CCRF-CEM cells, 100 µg/mL
C-antigen (human) [15] = assay: cell-fixed ELISA, CEM cells, 2.5 µg/mL
C-antigen (human) [16] = assay: cell-fixed ELISA, D-54MG cells, 2.5 µg/mL
C-antigen (human) [17] = assay: cell-fixed ELISA, SKMG-1 cells, 2.5 µg/mL
C-antigen (human) [18] = assay: flow cytometry, live LS-174T cells, 200 µg/mL
C-antigen (human) [19] = assay: flow cytometry, live H9 cells, 100 µg/mL
C-antigen (human) [20] = assay: flow cytometry, live SK-BR-3 cells, 200 µg/mL
C-antigen (human) [21] = assay: cell-fixed ELISA, DAUDI cells, 2.5 µg/mL
C-antigen (human) [22] = assay: cell-fixed ELISA, SK-N-MC cells, 2.5 µg/mL
C-antigen (human) [23] = assay: flow cytometry, live CA-46 cells, 200 µg/mL
C-antigen (human) [24] = assay: cell-fixed ELISA, NCI-69 cells, 2.5 µg/mL
C-antigen (human) [25] = assay: cell-fixed ELISA, HT-29 cells, 2.5 µg/mL
C-antigen (human) [26] = assay: cell-fixed ELISA, SW-9000 cells, 2.5 µg/mL
C-antigen (human) [27] = assay: cell-fixed ELISA, SK-MEL-28 cells, 2.5 µg/mL
C-antigen (human) [28] = assay: cell-fixed ELISA, DU-145 cells, 2.5 µg/mL
C-antigen (human) [29] = assay: flow cytometry, live H9 cells, 200 µg/mL
C-antigen (human) [30] = assay: cell-fixed ELISA, MB-468 cells, 2.5 µg/mL
C-antigen (human) [31] = assay: flow cytometry, live WI-38 human diploid lung cells, 100 µg/mL
C-antigen (human) [32] = assay: flow cytometry, live SKMG-1 cells, 100 µg/mL (second row)
C-antigen (human) [33] = assay: cell-fixed ELISA, U-2 OS cells, 2.5 µg/mL
C-antigen (human) [34] = assay: radioligand binding to LS174T cells
C-antigen (human) [35] = assay: flow cytometry, live H9 cells, 100 µg/mL; remark: listed apart in the source
C-antigen (human) [36] = assay: cell-fixed ELISA, SK-OV-3 cells, 2.5 µg/mL
C-antigen (human) [37] = assay: cell-fixed ELISA, LS17T cells, 2.5 µg/mL
C-antigen (human) [38] = assay: cell-fixed ELISA, SK-Co-1 cells, 2.5 µg/mL
C-antigen (human) [39] = assay: cell-fixed ELISA, RAMOS cells, 2.5 µg/mL
C-antigen (human) [40] = assay: flow cytometry, live A-375 cells, 200 µg/mL
C-antigen (human) [41] = assay: flow cytometry, live HT-29 cells, 200 µg/mL
C-antigen (human) [42] = assay: cell-fixed ELISA, BT-474 cells, 2.5 µg/mL
C-antigen (human) [43] = assay: flow cytometry, live CA-46 cells, 100 µg/mL
C-antigen (human) [44] = assay: flow cytometry, live RAMOS cells, 100 µg/mL
C-antigen (human) [45] = assay: cell-fixed ELISA, SAOS-2 cells, 2.5 µg/mL
C-antigen (human) [46] = assay: flow cytometry, live SKMG-1 cells, 100 µg/mL
C-antigen (human) [47] = assay: radioligand binding to SKMG1 cells
C-antigen (human) [48] = assay: cell-fixed ELISA, tumour cell lines, against BGA scFv
C-antigen (human) [49] = assay: flow cytometry, live RAMOS cells, 200 µg/mL
C-antigen (human) [50] = assay: flow cytometry, live CCRF-CEM cells, 200 µg/mL
C-antigen (human) [51] = assay: radioligand binding to A-375 cells
C-antigen (human) [52] = assay: cell-fixed ELISA, T47D cells, 2.5 µg/mL
C-antigen (human) [53] = assay: cell-fixed ELISA, A-375 cells, 2.5 µg/mL
C-antigen (human) [54] = assay: cell-fixed ELISA, T-24 cells, 2.5 µg/mL
C-antigen (human) [55] = assay: cell-fixed ELISA, SK-MEL-5 cells, 2.5 µg/mL
C-antigen (human) [56] = assay: cell-fixed ELISA, BT-20 cells, 2.5 µg/mL
C-antigen (human) [57] = assay: cell-fixed ELISA, SK-LU-1 cells, 2.5 µg/mL
C-antigen (human) [58] = assay: cell-fixed ELISA, CA-46 cells, 2.5 µg/mL

Mean Fluorescence (MF) (C-antigen (human) [1]): 169
Molecule: Control IgG1 (antibody)

% Increase of MF above IgG1 control (C-antigen (human) [2]): 14% and 10%
Mean Fluorescence (MF) (C-antigen (human) [2]): 192 and 186
% Increase of MF above IgG1 control (C-antigen (human) [3]): 18%
Mean Fluorescence (MF) (C-antigen (human) [3]): 200
% Increase of MF above IgG1 control (C-antigen (human) [4]): 2% and 9%
Mean Fluorescence (MF) (C-antigen (human) [4]): 172 and 184
% Increase of MF above IgG1 control (C-antigen (human) [5]): 33%
Mean Fluorescence (MF) (C-antigen (human) [5]): 224
B1: recombinantly produced H11 IgG1 (antibody)
VH: QAIVTLNTQAMHPTRWELSHMVDLQAAALVISSFITEHRGLTMEFGLSWVFLVALLRGIQCQVQLVESGGGVVQPGRSLRLSCAASGFPFRSFAMHWVRQALGKGLEWVAVISYDGSTKYYADSVKGRFTISRDTSKNTVYLKMNRLRTEDTAVFYLCERQSLLGDYDHYYGLDAWGKG
VL: LEMDMEFQAQLLFLLLLWLPDITGDIVLTQSPGTLSLSPGERATLSCRASQSVSSSYLAWYQQKPGQAPRLLIYGASTRATGMPDRFSGSGSGTDFTLTISRLEPEDFAVYYCQQYGSSPQTPQITFGGGTKVEIKRTVAAPSVFIFPPS

% Positive Cells (C-antigen (human) [6]): 11%
Mean Fluorescence (C-antigen (human) [6]): 156
O.D. at 450 nm (C-antigen (human) [7]): 0.44 O.D.
O.D. at 450 nm (C-antigen (human) [8]): 0.58 O.D.
O.D. at 450 nm (C-antigen (human) [9]): 0.08 O.D.
O.D. at 450 nm (C-antigen (human) [10]): 0.4 O.D.
O.D. at 450 nm (C-antigen (human) [11]): 0.36 O.D.
O.D. at 450 nm (C-antigen (human) [12]): 0.47 O.D.
O.D. at 450 nm (C-antigen (human) [13]): 0.65 O.D.
% FLUORESCENCE […] (C-antigen (human) [14]): 52%
% Positive Cells (C-antigen (human) [14]): 38%
Mean Fluorescence (C-antigen (human) [14]): 242
O.D. at 450 nm (C-antigen (human) [15]): 1.4 O.D.
O.D. at 450 nm (C-antigen (human) [16]): 0.5 O.D.
O.D. at 450 nm (C-antigen (human) [17]): 0.56 O.D.
% Positive Cells (C-antigen (human) [18]): 37%
Mean Fluorescence (C-antigen (human) [18]): 233
% FLUORESCENCE […] (C-antigen (human) [19]): 15%
% Positive Cells (C-antigen (human) [19]): 9%
Mean Fluorescence (C-antigen (human) [19]): 171
% Positive Cells (C-antigen (human) [20]): 36%
Mean Fluorescence (C-antigen (human) [20]): 233
O.D. at 450 nm (C-antigen (human) [21]): 1.38 O.D.
O.D. at 450 nm (C-antigen (human) [22]): 0.5 O.D.
% FLUORESCENCE […] (C-antigen (human) [23]): 108%
% Positive Cells (C-antigen (human) [23]): 76%
Mean Fluorescence (C-antigen (human) [23]): 262
O.D. at 450 nm (C-antigen (human) [24]): 0.44 O.D.
O.D. at 450 nm (C-antigen (human) [25]): 0.53 O.D.
O.D. at 450 nm (C-antigen (human) [26]): 0.41 O.D.
O.D. at 450 nm (C-antigen (human) [27]): 0.71 O.D.
O.D. at 450 nm (C-antigen (human) [28]): 0.42 O.D.
% FLUORESCENCE […] (C-antigen (human) [29]): 20%
% Positive Cells (C-antigen (human) [29]): 13%
Mean Fluorescence (C-antigen (human) [29]): 186
O.D. at 450 nm (C-antigen (human) [30]): 0.65 O.D.
% Positive Cells (C-antigen (human) [31]): 15%
Mean Fluorescence (C-antigen (human) [31]): 255
% Positive Cells (C-antigen (human) [32]): 27%
Mean Fluorescence (C-antigen (human) [32]): 224
O.D. at 450 nm (C-antigen (human) [33]): 0.93 O.D.
Ka (C-antigen (human) [34]): 3e+08 M⁻¹
% Positive Cells (C-antigen (human) [35]): 13%
Mean Fluorescence (C-antigen (human) [35]): 145
O.D. at 450 nm (C-antigen (human) [36]): 0.77 O.D.
O.D. at 450 nm (C-antigen (human) [37]): 0.57 O.D.
O.D. at 450 nm (C-antigen (human) [38]): 0.56 O.D.
O.D. at 450 nm (C-antigen (human) [39]): 1.3 O.D.
% Positive Cells (C-antigen (human) [40]): 80% and 76%
Mean Fluorescence (C-antigen (human) [40]): 207 and 235
% Positive Cells (C-antigen (human) [41]): 18%
Mean Fluorescence (C-antigen (human) [41]): 179
O.D. at 450 nm (C-antigen (human) [42]): 0.6 O.D.
% FLUORESCENCE […] (C-antigen (human) [43]): 66%
% Positive Cells (C-antigen (human) [43]): 58%
Mean Fluorescence (C-antigen (human) [43]): 221
% FLUORESCENCE […] (C-antigen (human) [44]): 87%
% Positive Cells (C-antigen (human) [44]): 67%
Mean Fluorescence (C-antigen (human) [44]): 316
O.D. at 450 nm (C-antigen (human) [45]): 0.88 O.D.
% Positive Cells (C-antigen (human) [46]): 31%
Mean Fluorescence (C-antigen (human) [46]): 206
Ka (C-antigen (human) [47]): 1.4e+09 M⁻¹
binding sites/cell (binding sites/cell) (C-antigen (human) [47]): 5000
affinity relative to control scFv (C-antigen (human) [48]): 8 to 50 fold
% FLUORESCENCE […] (C-antigen (human) [49]): 143%
% Positive Cells (C-antigen (human) [49]): 95%
Mean Fluorescence (C-antigen (human) [49]): 423
% FLUORESCENCE […] (C-antigen (human) [50]): 35%
% Positive Cells (C-antigen (human) [50]): 34%
Mean Fluorescence (C-antigen (human) [50]): 231
Ka (C-antigen (human) [51]): 3.6e+08 M⁻¹
binding sites/cell (binding sites/cell) (C-antigen (human) [51]): 24000
O.D. at 450 nm (C-antigen (human) [52]): 0.64 O.D.
O.D. at 450 nm (C-antigen (human) [53]): 0.97 O.D.
O.D. at 450 nm (C-antigen (human) [54]): 0.97 O.D.
O.D. at 450 nm (C-antigen (human) [55]): 0.61 O.D.
O.D. at 450 nm (C-antigen (human) [56]): 0.54 O.D.
O.D. at 450 nm (C-antigen (human) [57]): 0.45 O.D.
O.D. at 450 nm (C-antigen (human) [58]): 1.2 O.D.
B2: H11-scFv (scFv)
scFv: DIVLTQSPGTLSLSPGERATLSCRASQSVSSSYLAWYQQKPGQAPRLLIYGASTRATGMPDRFSGSGSGTDFTLTISRLEPEDFAVYYCQQYGSSPQTPQITFGGGTKVEIKRTVAAPSVSGGGGSGGGGSGGGGSQVQLVESGGGVVQPGRSLRLSCAASGFPFRSFAMHWVRQALGKGLEWVAVISYDGSTKYYADSVKGRFTISRDTSKNTVYLKMNSLRTEDTAVYYCARDQSLLGDYDHYYGLDVWGKGTTVTVSSGSEQKLISEEDLNHHHHH
